These results are taken from patent US20190062453A1 (Hoffmann-La Roche, published 2019).

Changes are numbered by the printed parent chain. In names and notes the source's numbering stands.

Assay [1] has as its target murine FAP on recombinant 3T3 cells (murine, UniProt P97321 1-761). In words: cell-based or functional assay.
Assay [2] concerns the target T1, cynomolgus DR5 in the TagLite assay (cynomolgus).
T1 construct: also called cy DR5 (TagLite)
In words: TagLite TR-FRET on cells.
Procedure: The binding of bispecfic molecules on cells was determined using a time-resolved fluorescence resonance energy transfer (TR-FRET) assay (called TagLite). […] The mixture was incubated for 20 min at RT. In the meantime, the adherent Hek EBNA cells grown in a T75 flask were washed with 5 ml D-PBS prior to adding the transfection mixture and culture medium (6 ml) (DMEM, 10% FCS, glutamax, Non-essential amino acids). The cells were then incubated overnight in a humidified incubator (5% CO2) at 37° C. Cells were washed with 5 ml D-PBS, followed by the addition of a mixture of 5 ml TagLite buffer (Cisbio Cat No.) containing 100 nM SNAP-Lumi4-Tb (Cisbio Cat No.). […] After an incubation time of 1 h at 37° C., the cells were washed with TagLite buffer to remove unbound dye. […] Cells were then frozen in culture medium substituted with 10% DMSO and stored at −80° C.
For KD determination the results were analysed in Graph Pad Prism with one site fit-specific binding.

The target in assay [3] is T2, Human FAP ectodomain + poly-lys-tag + his6-tag (human, UniProt Q12884 27-760).
T2 construct: also called recombinant soluble human FAP; hFAP
In words: SPR (Biacore), bispecific antibody bound to immobilised human DR5-Fc, recombinant human FAP as second analyte (simultaneous binding). A general note: In SPR one partner is held on a chip, and binding of the other changes the refractive index at the surface.
Procedure: The dissociation was monitored for 60 s. The flow rate for all steps was 30 μl/min.

For assay [4], the target named is T2, Human FAP ectodomain + poly-lys-tag + …. Briefly: SPR, bispecific captured by anti human IgG (Fc), human FAP 5 µg/ml.
Procedure: The sample and system buffer was PBS-T (10 mM phosphate buffered saline including 0.05% Tween20) pH 7.4. The temperature of the flow cell was set to 25° C. and of the sample block to 12° C. Before capturing, the flow cell was primed with running buffer twice.
The bispecific antibody was captured by injecting a 5 μg/ml solution for 60 sec at a flow of 5 μl/min. […] The surface was regenerated by 60 sec washing with a 3 m MgCl2 solution at a flow rate of 30 μl/min. Bulk refractive index differences were corrected by subtracting the response obtained from an anti human IgG surface.
The target in another assay is T3, human FAP on cells (human, UniProt Q12884 1-760).
T3 construct: whole, on cells; also called human FAP expressed on recombinant HEK293 cells; FAP on GM05389 fibroblasts
Briefly: FACS on recombinant HEK293 cells expressing human FAP.

Assay [5] concerns the target T4, murine DR5 ECD-AcTev-hu Fc-Avi (murine, UniProt Q9QZM4 53-153).
T4 construct: range 53-153; also called mouse DR5
Briefly: binding ELISA. In general terms: ELISA stands for enzyme-linked immunosorbent assay.

The target in assay [6] is T5, Recombinant human DR4-Fc (human, UniProt O00220 109-239).
T5 construct: bought; also called huDR4Fc; human DR4 (TNFRSF10A); Fc part of the bought chimera not given
In words: binding ELISA.

Assay [7] addresses T6, Recombinant human DcR1-Fc (human, UniProt O14798 26-221).
T6 construct: bought; also called huDcR1Fc; human DcR1 (TNFRSF10C); Fc part of the bought chimera not given
T6 sequence (looked up): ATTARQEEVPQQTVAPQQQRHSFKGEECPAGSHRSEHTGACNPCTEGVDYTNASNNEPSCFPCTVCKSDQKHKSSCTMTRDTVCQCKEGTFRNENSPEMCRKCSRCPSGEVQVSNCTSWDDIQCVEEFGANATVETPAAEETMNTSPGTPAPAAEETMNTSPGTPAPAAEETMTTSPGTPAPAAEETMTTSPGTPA
Briefly: binding ELISA.

Assay [8] deals with T7, Recombinant human DcR2-Fc (human, UniProt Q9UBN6 56-211).
T7 construct: bought for the phage antibodies; also called huDcR2Fc; human DcR2 (TNFRSF10D); not shown: Fc part of the chimera
T7 sequence (looked up): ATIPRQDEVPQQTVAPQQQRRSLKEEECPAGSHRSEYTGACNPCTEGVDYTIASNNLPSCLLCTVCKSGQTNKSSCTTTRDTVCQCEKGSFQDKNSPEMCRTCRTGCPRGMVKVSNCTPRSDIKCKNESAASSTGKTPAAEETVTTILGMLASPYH
Briefly: binding ELISA.

The target of assay [9] is T8, Recombinant human OPG-Fc (human, UniProt O00300 22-194).
T8 construct: bought; also called rhuOPGFc; human Osteoprotegerin; Fc part of the bought chimera not given
T8 sequence (looked up): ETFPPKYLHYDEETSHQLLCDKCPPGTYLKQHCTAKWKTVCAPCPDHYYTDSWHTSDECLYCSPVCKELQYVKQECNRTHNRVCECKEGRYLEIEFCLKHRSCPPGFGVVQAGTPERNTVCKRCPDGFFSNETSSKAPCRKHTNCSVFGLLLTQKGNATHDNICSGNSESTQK
In words: binding ELISA.

Assay [10] addresses T9, human DR5 (monomeric Fc fusion) (human, UniProt O14763 56-207, biotinylated at the Avi tag in the ELISA (the tag is not in the letters)).
T9 construct: biotinylated in the ELISA; also called ECD-AcTev-hu Fc knob-Avi; not shown: AcTev site, hu Fc knob and Avi part of the fusion chain, and the separate Fc-hole chain
Briefly: biochemical ELISA, biotinylated antigen on streptavidin plate.

Assay [11] concerns the target T10, Cynom. DR5 (ECD)-AcTev-Fc-Avi (cynomolgus).
T10 construct: also called cynomolgus DR5; cy DR5
The description is as above.
Procedure: Antigen binding immunoassays were performed at room temperature on 384 well streptavidin coated microtiter plates (MicroCoat Biotechnologie GmbH) with PBS buffer supplemented with 0.05% Tween®-20 and 0.5% BSA (Roche Diagnostics GmbH). […] After 90 min incubation the plate was washed 6 times with PBST (phosphate buffered saline with 0.2% Tween®-20) and developed with BM Blue® HRP substrate solution (BM Blue®: 3,3′-5,5′-Tetramethylbenzidine, Roche Diagnostics GmbH) for 30 minutes at RT. Absorbance was measured at 370 nm. The blank value was defined without addition of supernatant.

The next assay concerns the target T11, human DR5 ECD-Avi-his (human, UniProt O14763 56-207).
T11 construct: also called recombinant human DR5 (monomeric His-Avi fusion protein); monomeric human DR5
In words: SPR, rabbit IgG captured by anti rabbit, monomeric DR5 injected.

For assay [12], the target named is T5, Recombinant human DR4-Fc. Briefly: SPR, receptor-Fc on CM5 chip.
For assay [13], the target named is T6, Recombinant human DcR1-Fc. Briefly: SPR, receptor-Fc on CM5 chip.
Assay [14] has as its target T7, Recombinant human DcR2-Fc. Briefly: SPR, receptor-Fc on CM5 chip.
Assay [15] concerns the target T8, Recombinant human OPG-Fc. In words: SPR, receptor-Fc on CM5 chip.
The target of assay [16] is T4, murine DR5 ECD-AcTev-hu Fc-Avi. In words: SPR, biotinylated DR5 on SA chip.

Procedure for human DR5 ECD-Avi-his: The sample and system buffer was PBS-T (10 mM phosphate buffered saline including 0.05% Tween20) pH 7.4. The flow cell was set to 25° C.—and the sample block set to 12° C.—and primed with running buffer twice.
The dissociation phase was monitored for up to 300 sec and triggered by switching from the sample solution to running buffer. The surface was regenerated by 60 sec washing with a 100 mM H3PO4 (phosphoric acid) solution at a flow rate of 30 μl/min. Bulk refractive index differences were corrected by subtracting the response obtained from a blank surface. Buffer injections are also subtracted (=double referencing). For calculation of KD and other kinetic parameters the Langmuir 1:1 model was used.

B1: DR5(5E11)-28H1 VHCL 2 + 2 (bispecific antibody, human IgG1, kappa)
heavy: not shown
light: EIVLTQSPGTLSLSPGERATLSCRASQSVSSSYLAWYQQKPGQAPRLLIYGASSRATGIPDRFSGSGSGTDFTLTISRLEPEDFAVYYCQQGTTHPITFGQGTKVEIKRTVAAPSVFIFPPSDEQLKSGTASVVCLLNNFYPREAKVQWKVDNALQSGNSQESVTEQDSKDSTYSLSSTLTLSKADYEKHKVYACEVTHQGLSSPVTKSFNRGEC
chain: EIVLTQSPGTLSLSPGERATLSCRASQSVSRSYLAWYQQKPGQAPRLLIIGASTRATGIPDRFSGSGSGTDFTLTISRLEPEDFAVYYCQQGQVIPPTFGQGTKVEIKSSASTKGPSVFPLAPSSKSTSGGTAALGCLVKDYFPEPVTVSWNSGALTSGVHTFPAVLQSSGLYSLSSVVTVPSSSLGTQTYICNVNHKPSNTKVDKKVEPKSCD
notes: also called DR5TAA-0030
Take B1: in assay [1], the “Cell Death Detection ELISA, DLD-1 cells with 3T3 cells expressing murine FAP” value came out at 10 fold. This molecule gave an Avidity in [2] of 0.4 nM. Moreover, in [3], the binding result is reported as “binds”.

B2: DR5(5E11)-28H1 VHCL 2 + 2 P329GLALA (bispecific antibody, human IgG1, kappa, L234A L235A)
heavy: not shown
light: B1 light
chain: B1 chain
notes: C-terminal lysine removed, L234A L235A P329G in Fc; also called DR5TAA-0057; format A
Turning to B2, the “Cell Death Detection ELISA, DLD-1 cells with 3T3 cells expressing murine FAP” value in assay [1] was found to be 10 fold. This molecule showed an Avidity in assay [2] of 0.6 nM. Further, the “FAP [RU max]” value in assay [4] came to 40.8 RU.

B3: DR5TAA-0081 (bispecific antibody, human IgG1, kappa, L234A L235A)
heavy: not shown
light: B1 light
chain: EVQLLESGGGLVQPGGSLRLSCAASGFTFSSHAMSWVRQAPGKGLEWVSAIWASGEQYYADSVKGRFTISRDNSKNTLYLQMNSLRAEDTAVYYCAKGWLGNFDYWGQGTLVTVSSASVAAPSVFIFPPSDEQLKSGTASVVCLLNNFYPREAKVQWKVDNALQSGNSQESVTEQDSKDSTYSLSSTLTLSKADYEKHKVYACEVTHQGLSSPVTKSFNRGEC
notes: also called format F
B3: the “FAP [RU max]” value in assay [4] came out at 7.2 RU.

B4: DR5TAA-0078 (bispecific antibody)
heavy: not shown
chain: B1 chain with R31S, I50Y, T54S, Q93T, V94T, I95H, P97I
light: B1 light with S31R, Y50I, S54T, T93Q, T94V, H95I, I97P
notes: also called format D
B4: the “FAP [RU max]” value in [4] worked out at 38.4 RU.

B5: DR5TAA-0077 (bispecific antibody, human IgG1, kappa)
heavy: not shown
chain: not shown
light: B1 light with S31R, Y50I, S54T, T93Q, T94V, H95I, I97P
notes: also called format C
B5: the “FAP [RU max]” value in assay [4] was 41.9 RU.

B6: 4G8_scFab_HC (bispecific antibody, human IgG1, kappa, lambda)
heavy: not shown
light: SELTQDPAVSVALGQTVRITCSGDSLRSYYASWYQQKPGQAPVLVIYGANNRPSGIPDRFSGSSSGNTASLTITGAQAEDEADYYCNSADSSGNHVVFGGGTKLTVLGQPKAAPSVTLFPPSSEELQANKATLVCLISDFYPGAVTVAWKADSSPVKAGVETTTPSKQSNNKYAASSYLSLTPEQWKSHRSYSCQVTHEGSTVEKTVAPTECS
notes: also called GA803_A01_B02A_001; Drozitumab-scFab-FAP
For the molecule B6, the binding result with human FAP on cells is listed as “binds”.

B7: DR5TAA-0011 (antibody, V domains shown)
VH: QSVEESGGRLVTPGTPLTLTCTVSGFSISRYAMIWVRQAPGEGLEYIGFITSDSSAYYASWAKGRFTISKTSTTVDLKMTSPTTEDTATYFCARYTYSDGTDLWGPGTLVTVSS
VL: DIVMTQTPASVSEPVGGTVTIKCQASQSISTYLSWYQQKPGQPPKRLIYKASTLASGVPSRFKGSGSGTDFTLTIRDLECADAATYYCQPNSGIATYGAAFGGGTEVVVKG
notes: also called 174; clone 174
Turning to B7, the binding result (in assay [5]; with Recombinant human DR4-Fc [6]; in assay [7]; in [8]; with Recombinant human OPG-Fc [9]) was “no binding” each time. For the same molecule, the results for the EC50 in [10] and in [11] were 2 ng/mL and 4.3 ng/mL, respectively. The Kd with human DR5 ECD-Avi-his worked out at 4.24 nM.

B8: 4G8 IgG (antibody, V domains shown)
VH: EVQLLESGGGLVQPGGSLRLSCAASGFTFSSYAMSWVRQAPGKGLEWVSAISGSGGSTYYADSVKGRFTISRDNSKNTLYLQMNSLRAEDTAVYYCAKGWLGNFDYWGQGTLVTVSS
VL: EIVLTQSPGTLSLSPGERATLSCRASQSVSRSYLAWYQQKPGQAPRLLIIGASTRATGIPDRFSGSGSGTDFTLTISRLEPEDFAVYYCQQGQVIPPTFGQGTKVEIK
notes: also called FAP (4G8) IgG molecule; parental 4G8 IgG
Take B8: the binding result with human FAP on cells is given as “binds”.

B9: 5E11 (antibody, V domains shown)
VH: not shown
VL: B8 VL with R31S, I50Y, T54S, Q93T, V94T, I95H, P97I
notes: Phage display Fab converted into hu IgG1, kappa light chain; also called clone 5E11
Consider B9, for which the binding result is “no binding (tested: 500, 100 and 25 nM)” with Recombinant human DR4-Fc [12]; “no binding (tested: 500, 100 and 25 nM)” in assay [13]; “no binding (tested: 500, 100 and 25 nM)” in assay [14]; “no binding (tested: 500, 100 and 25 nM)” in the assay with Recombinant human OPG-Fc [15]; “no binding (tested: 500, 100 and 25 nM)” in [16].

B10: 20F2 (antibody, IgG1, V domains shown)
VH: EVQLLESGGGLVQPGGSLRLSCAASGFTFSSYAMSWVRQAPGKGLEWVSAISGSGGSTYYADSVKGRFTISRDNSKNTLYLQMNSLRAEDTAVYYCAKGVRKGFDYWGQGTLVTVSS
VL: B8 VL with R31S, I50Y, T54S, Q93E, V94S, I95P
notes: hu IgG1; also called DR5 (20F2)
Take B10: the binding result was “no binding (tested: 500, 100 and 25 nM)” in the assay with Recombinant human DR4-Fc [12]; “no binding (tested: 500, 100 and 25 nM)” in assay [13]; “no binding (tested: 500, 100 and 25 nM)” in assay [14]; “no binding (tested: 500, 100 and 25 nM)” with Recombinant human OPG-Fc [15]; “no binding (tested: 500, 100 and 25 nM)” in [16].

B11: 18F11 (antibody, IgG1, V domains shown)
VH: not shown
VL: B8 VL with R31S, I50Y, T54S, V94L, I95P, P97I
notes: hu IgG1
On to B11, for which the binding result is “no binding (tested: 500, 100 and 25 nM)” in the assay with Recombinant human DR4-Fc [12]; “no binding (tested: 500, 100 and 25 nM)” in assay [13]; “no binding (tested: 500, 100 and 25 nM)” in [14]; “no binding (tested: 500, 100 and 25 nM)” with Recombinant human OPG-Fc [15]; “no binding (tested: 500, 100 and 25 nM)” in assay [16].

B12: 22E9 (antibody, IgG1, V domains shown)
VH: not shown
VL: B8 VL with R31S, I50Y, T54S, Q93S, V94N, I95Q, P97V
notes: hu IgG1
Consider B12, for which the binding result was “no binding (tested: 500, 100 and 25 nM)” with Recombinant human DR4-Fc [12]; “no binding (tested: 500, 100 and 25 nM)” in assay [13]; “no binding (tested: 500, 100 and 25 nM)” in assay [14]; “no binding (tested: 500, 100 and 25 nM)” with Recombinant human OPG-Fc [15]; “no binding (tested: 500, 100 and 25 nM)” in assay [16].

B13: 21H3 (antibody, IgG1, V domains shown)
VH: not shown
VL: B8 VL with R31S, I50Y, T54S, Q93S, V94Q, I95P, P97I
notes: hu IgG1
In the case of B13, the binding result in the assay with Recombinant human DR4-Fc [12] was “no binding (tested: 500, 100 and 25 nM)”; in assay [13] it was “no binding (tested: 500, 100 and 25 nM)”; in assay [14], “no binding (tested: 500, 100 and 25 nM)”; in the assay with Recombinant human OPG-Fc [15], “no binding (tested: 500, 100 and 25 nM)”; in assay [16] it was “no binding (tested: 500, 100 and 25 nM)”.

Broadly, the EC50 is the midpoint of the concentration-response curve. Lower therefore signals an effect from little substance. Broadly, the Kd is the equilibrium constant for the complex coming apart.
